Results taken from PMC4601532 (Science (New York, N.Y.), 2015).

B1: Vps30/Atg6, subunit of complex II (natural protein)
chain: MKCQTCHLPLQLDPSLEGLSLTQRNLLLSNNSIITATNENVISNKGIEAADNCGPQIPKERLRRLGEIQNIKDLNLKDDKLITDSFVFLNHDDDDNANITSNSREDQRYGNANGNDNKKANSDTSDGTSTFRDHDEEEQEATDEDENQQIQLNSKTLSTQVNAMTNVFNILSSQTNIDFPICQDCCNILINRLKSEYDDAIKERDTYAQFLSKLESQNKEISESNKEKQYSHNLSEKENLKKEEERLLDQLLRLEMTDDDLDGELVRLQEKKVQLENEKLQKLSDQNLMDLNNIQFNKNLQSLKLQYELSLNQLDKLRKINIFNATFKISHSGPFATINGLRLGSIPESVVPWKEINAALGQLILLLATINKNLKINLVDYELQPMGSFSKIKKRMVNSVEYNNSTTNAPGDWLILPVYYDENFNLGRIFRKETKFDKSLETTLEIISEITRQLSTIASSYSSQTLTTSQDESSMNNANDVENSTSILELPYIMNKDKINGLSVKLHGSSPNLEWTTAMKFLLTNVKWLLAFSSNLLSKSITLSPTVNYNDKTISGN
B2: Vps38, subunit of complex II (natural protein)
chain: MKRFLLSRRQRHLRMICFHNISLFRANGDSKLIKEYGDGFIPCFFILESIRGELLYVSEVQSGSLRKLSFQELPKLTGASTMIVLKLVGLVPSDILCTISSDKNGIIDDKWCVLCTYTIDLNKLQPINEDTVLITGTNAPVLDLIDGSYTLAAEKIKPLKGLVSSHKRNISQVKIKFSLAYSSLLKLNKLLEYSSQVHEEINEISSKIEDDFLSLKNQNHWYMRTVQKSIETLEKEVLQRKKSKKNIEMAQLESNDTINHSKTELSLMSQDESINDDYGSIYSRFVQIKDRLDQLRFKKLYQLIGIFHSTDLFNSDRGYIYFEKPSSVNDVINRLKLKPLNIEILLRQAGESTKHREYVNSQLGYYLLFLHLTAIQIFKAPLPYRLMYYGSTSVIDSQYPLYFTDQMISKHQAKLIKAIHYFNADILQFKQILENYRPT
B3: Vps30/ZZ-Vps38 heterodimer held on IgG beads (complex)
chain 1: B1 chain
chain 2: B2 chain
B4: Vps34 (vacuolar protein sorting 34), subunit of complex II (enzyme)
chain: LNNITFCVSQDLDVPLKVKIKSLEGHKPLLKPSQKILNPELMLIGSNVFPSSDLIVSLQVFDKERNRNLTLPIYTPYIPFRNSRTWDYWLTLPIRIKQLTFSSHLRIILWEYNGSKQIPFFNLETSIFNLKDCTLKRGFESLKFRYDVIDHCEVVTDNKDQENLNKYFQGEFTRLPWLDEITISKLRKQRENRTWPQGTFVLNLEFPMLELPVVFIEREIMNTQMNIPTLKNNPGLSTDLREPNRNDPQIKISLGDKYHSTLKFYDPDQPNNDPIEEKYRRLERASKNANLDKQVKPDIKKRDYLNKIINYPPGTKLTAHEKGSIWKYRYYLMNNKKALTKLLQSTNLREESERVEVLELMDSWAEIDIDDALELLGSTFKNLSVRSYAVNRLKKASDKELELYLLQLVEAVCFENLSTFSDKSNSEFTIVDAVSSQKLSGDSMLLSTSHANQKLLKSISSESETSGTESLPIVISPLAEFLIRRALVNPRLGSFFYWYLKSESEDKPYLDQILSSFWSRLDKKSRNILNDQVRLINVLRECCETIKRLKDTTAKKMELLVHLLETKVRPLVKVRPIALPLDPDVLICDVCPETSKVFKSSLSPLKITFKTTLNQPYHLMFKVGDDLRQDQLVVQIISLMNELLKNENVDLKLTPYKILATGPQEGAIEFIPNDTLASILSKYHGILGYLKLHYPDENATLGVQGWVLDNFVKSCAGYCVITYILGVGDRHLDNLLVTPDGHFFHADFGYILGQDPKPFPPLMKLPPQIIEAFGGAESSNYDKFRSYCFVAYSILRRNAGLILNLFELMKTSNIPDIRIDPNGAILRVRERFNLNMSEEDATVHFQNLINDSVNALLPIVIDHLHNLAQYWRT

Assays:
[1] = target: Vps38-C2 with CC1 region (Saccharomyces cerevisiae); assay: SEC-MALS
[2] = target: B2; assay: SEC-MALS
[3] = target: T1, Vps15, subunit of complex II (Saccharomyces cerevisiae, UniProt P22219 1-1454); assay: SEC-MALS
T1 sequence: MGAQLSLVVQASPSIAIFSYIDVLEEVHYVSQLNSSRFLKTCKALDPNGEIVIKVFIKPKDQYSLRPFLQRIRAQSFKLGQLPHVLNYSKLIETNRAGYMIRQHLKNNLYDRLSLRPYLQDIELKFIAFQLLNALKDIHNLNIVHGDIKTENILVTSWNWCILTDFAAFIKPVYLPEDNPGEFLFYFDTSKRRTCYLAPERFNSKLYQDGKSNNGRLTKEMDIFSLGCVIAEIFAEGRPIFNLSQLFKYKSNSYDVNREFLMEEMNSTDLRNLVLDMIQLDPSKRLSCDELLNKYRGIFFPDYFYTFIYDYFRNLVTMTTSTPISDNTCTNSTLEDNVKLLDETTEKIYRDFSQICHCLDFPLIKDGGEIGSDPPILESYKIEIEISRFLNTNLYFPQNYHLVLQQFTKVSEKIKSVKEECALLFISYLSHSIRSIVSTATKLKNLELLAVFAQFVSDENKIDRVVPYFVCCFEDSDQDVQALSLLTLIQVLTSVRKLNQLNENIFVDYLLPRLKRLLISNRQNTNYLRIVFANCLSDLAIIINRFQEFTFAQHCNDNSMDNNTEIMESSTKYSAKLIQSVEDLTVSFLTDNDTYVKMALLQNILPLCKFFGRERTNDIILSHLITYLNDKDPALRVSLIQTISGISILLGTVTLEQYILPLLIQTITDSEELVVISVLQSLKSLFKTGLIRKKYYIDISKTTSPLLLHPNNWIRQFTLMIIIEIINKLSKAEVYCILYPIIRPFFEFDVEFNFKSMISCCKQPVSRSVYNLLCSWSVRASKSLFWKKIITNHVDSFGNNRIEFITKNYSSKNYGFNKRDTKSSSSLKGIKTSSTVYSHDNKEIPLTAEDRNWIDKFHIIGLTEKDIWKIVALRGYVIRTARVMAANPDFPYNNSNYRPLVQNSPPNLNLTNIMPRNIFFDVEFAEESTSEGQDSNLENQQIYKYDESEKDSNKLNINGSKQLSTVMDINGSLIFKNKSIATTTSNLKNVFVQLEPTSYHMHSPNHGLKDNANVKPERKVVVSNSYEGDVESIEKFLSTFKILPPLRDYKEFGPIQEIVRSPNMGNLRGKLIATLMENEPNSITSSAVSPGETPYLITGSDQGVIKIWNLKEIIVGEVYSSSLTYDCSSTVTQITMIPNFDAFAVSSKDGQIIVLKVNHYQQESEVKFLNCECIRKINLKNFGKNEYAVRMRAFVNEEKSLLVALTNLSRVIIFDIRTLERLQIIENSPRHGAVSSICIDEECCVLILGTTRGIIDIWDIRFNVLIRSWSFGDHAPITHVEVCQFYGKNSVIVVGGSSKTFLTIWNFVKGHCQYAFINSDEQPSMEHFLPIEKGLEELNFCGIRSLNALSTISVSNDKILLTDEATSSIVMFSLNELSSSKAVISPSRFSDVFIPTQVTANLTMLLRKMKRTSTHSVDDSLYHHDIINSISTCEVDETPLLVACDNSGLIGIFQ

[4] = target: B4; assay: crystal structure
[5] = target: B1; assay: crystal structure
[6] = target: Saccharomyces cerevisiae Vps15/Vps34 heterodimer (Saccharomyces cerevisiae, UniProt P22219;P22543); assay: pull-down
[7] = target: B1; assay: SEC-MALS

Row | Molecule | stoichiometry N [2] | stoichiometry N [3] | binding result [4] | further results
1 | Vps30-NTD with CC1 region (domain or fragment) | – | – | – | stoichiometry N [1]: 1
2 | B1 | 1 | 1 | binds | –
3 | B2 | – | 1 | binds | binding result [5]: binds
4 | B3 | – | – | – | binding result [6]: binds
5 | B4 | 1 | 1 | – | stoichiometry N [7]: 1
